Experiment: soluble on expression in E. coli; label from the status in PepcDB or PDB records

Sequence	soluble on expression in E. coli
MTDCCPGFGSVAKYIAVSVREASFDVRSMAATSTCIFVLEVMGRHAGWIAAAGGLASDERHELALVILFPEQVFDPERFLRAVDEKVRSHGYCSVVVSEGIRGADGRFVAESGSRDVFGHARLGGVAPVIADLIKERLGYKYHWAVADYLQRAARHIALEHHHHHH	not soluble
MGSDKIHHHHHHMMTISNGNLRVDLRLIADMVEPGSRVLDVGCGEGALLDWLGRTKNVDGRGIELSMAGVSAAVSHGLSVIQGDADTDLKDYPSGAFDYVILSQTLQATYAPRTVLSNMLRIGRRAIVSFPNFGHWRVRLHLLTHGRMPVTDTLAYEWYDTPNIHFCTIRDFLDLCRDLGIRVERSIPLDRSGRTMAIPSCEGIANLFADQGLFVLSREG	not soluble
MGSDKIHHHHHHMSDRLPPLTALRAFDAAARHMSFAKAADELSVTPAALSFQIKSLEEHLGAPLFRRLNRAVELTEAGAALAPGVDEGFQALSAAWRQARRVLDTTSLTVTAGPALTAKWLAPRLYEFARSHPDIDLRLSAGLKMVDLRRDHVDVAIRFGYSVDDYLVAQAARPEWLTPVMTPELCAKYPTPQSLRDAPLIYDDSIGFLSPSCDWPTWFRAMGLEFTPGHGTHFSHADHAIDAACAGLGVALGRRPMIIKDVQEGRLVAPFKVAIETDAKFHFLCLPSSQDRPQIRAFREWFFSEIEKTAHMWDDFTIIPVKDL	not soluble
KTGFFVGPMAEFTLPIIGIGADVAALYSQTDLGADGEKTMKLKTFAVPVNLKWSFGLGSMLGAYIAAGPQFDFNIGNKTWTRELSLKKSTTSFNVGAGLKLIRHLQLGVNYNFALSKTGTYEYYTEGESGDGHHSVNIKNNTWQVSLAYLF	not soluble
MGSDKIHHHHHHMGGNRFGQSPVTGGAGVNAVAKRACLDDVQIAFGQGHRVHVARADTAPDLTRAFAQPIHLCTPICPPRTLTTTRHMDNPHGRAIVHAMEQLDADILIVGGGLNGPCLALACAQAGLSSVVLDALPAQTREETGFDGRAYALALASVRMLDALGIWNQVEDHAQPMLEIKASDGRAGEGAAPFFLHFDHAEIEEGPMGHMLEDRYLRRALMAAMEASSLVAHRAASRVLSQDTNGMASVTLDGGEVLRGRLLIGADGKRSGVAERAGIRRMGWDYNQTALVCAVDHDRPHNGIAHQFFMPGGPLAILPLPGNRSSIVWSESEPRASELAAADDDTFMDALRPAFGDFLGNISLTGQRHSYPLSLSLAQAFVAEKLALVGDAAHGVHPIAGQGLNLGLRDVSALAETLADAKRRGEDFARRDVLDRYQQWRRFDTAGLAVATDSVNRLFSNDNPAVRAIRDIGMGAIGALPTLRRRFIREAAGLTGDLPRLMQGRTL	not soluble
MGSDKIHHHHHHMTPRANALPTDAGELYYSYARPADGALPSLSRQKGLLGIITFQTGFVGEGDGAKPEGILQIPLSGRGDDLCELWKTTQPVLAGTFGDITYRCSRDFLFGSIALAVADLPAGNHGLIHPPLQNAAELAYQQIFSLLDRHGYPGLLRIWNFVPDINGVSHGLEHYRQFNIGRQDAFLAHNRLPSRQNIPAASALGSVDGPLVVYFLAARRNSVAVENPRQISAYHYPQEYGPSSPTFSRAGWVDLGQQKILFISGTASIIGHQTRHGGNVAAQARESMANIAAVVAETNRVAAGSPYDLNDLSYKVYLRQFTDLPIVRAELDRLVTPKAPIFYLQADICRADLLVEIEATAGVLHGGMA	not soluble
MKTKNEPKVILELAKESDLPEFQKKLQEAFAIAVIETFGDCEDGPIPSDNDVQESFNAPGAVVYHILQDGKNVGGAVVRINSQTNHNSLDLFYVSPEYHSQGIGLSAWKAIEAQYPDTVLWETVTPYFEKRNINFYVNKCGFHIVEFYNEHHSNPHMHRNGREDDKPLLNDDDFFRFVKIMKKKD	not soluble
MDTSLPSAILNNMVTATLILDDGLAIRYANPAAELLFSQSAKRIVEQSLSQLIQHASLDLALLTQPLQSGQSITDSDVTFVVDGRPLMLEVTVSPITWQRQLMLLVEMRKID	soluble
MERINFIFGIHNHQPLGNFGWVFEEAYNRSYRPFMEILEEFPEMKVNVHFSGPLLEWIEENKPDYLDLLRSLIKRGQLEIVVAGFYEPVLAAIPKEDRLVQIEMLKDYARKLGYDAKGVWLTERVWQPELVKSLREAGIEYVVVDDYHFMSAGLSKEELFWPYYTEDGGEVITVFPIDEKLRYLIPFRPVKKTIEYLESLTSDDPSKVAVFHDDGEKFGVWPGTYEWVYEKGWLREFFDAITSNEKINLMTYSEYLSKFTPRGLVYLPIASYFEMSEWSLPAKQAKLFVEFVEQLKEEGKFEKYRVFVRGGIWKNFFFKYPESNFMHKRMLMVSKAVRDNPEARKYILKAQCNDAYWHGVFGGIYLPHLRRTVWENIIKAQRYLKPENKILDVDFDGRAEIMVENDGFIATIKPHYGGSIFELSSKRKAVNYNDVLPRRWEHYHEVPEATKPEKESEEGIASIHELGKQIPEEIRRELAYDWQLRAILQDHFIKPEETLDNYRLVKYHELGDFVNQPYEYEMIENGVKLWREGGVYAEEKIPARVEKKIELTEDGFIAKYRVLLEKPYKALFGVEINLAVHSVMEKPEEFEAKEFEVNDPYGIGKVRIELDKAAKVWKFPIKTLSQSEAGWDFIQQGVSYTMLFPIEKELEFTVRFREL	soluble
GMTNTTYVQEYHAIVEVLSKYNEGGKKADSTIMRPAFSSQATIFGVDVDNKLTGGPIQGLFDVIDNVFHPSPEAKAAIARIDIVGTAASARIDTDDISGFRFTDFFNLLKVEGKWTVVSKIYHTHPSA	soluble
MRGSHHHHHHGSMQYALLFPGQGSQCIGMGKSFYEGHTLAKELFERASNALKVDMKKTLFEENELLKESAYTQPAIYLVSYIAYQLLNKQANGGLKPVFALGHSLGEVSAVSLSGALDFEKALKLTHQRGKMMQEACANKDASMMVVLGVSEESLLSLCQRTKNVWCANFNGGMQVVLAGVKDDLKALEPTLKEMGAKRVVFLEMSVASHCPFLEPMIFKFQELLEKSLKDKFHFEIISNATNEAYHNKAKAVELLSLQLTQPVRYQDCVKSNNDRVDIFFELGCGSVLKGLNKRLSNKPTISVGDNKGLDEAIEFLEEYV	soluble
MSLKNTPPGFPSHSSATLAFALAIAAGGAQAAGFVEDAKGTLTLRNFFINRDFKGDNATRSKAEEWTQNFLLDLKSGYTEGPLGLGLDVLGLYSVKLDGGKGTGGTQLLPLDHDGKPADRFGRLAVAGKLKLSETELRAGEWALVLPILRSDDGRSLPQTFRGSMLTSKEIENLTLYAGHITGNSPRDDGSMEEMTLFGTSPYTSDRTSDDFDFGGLEYSFNGKRTLVGVWYARLKDIYKQRYIQLQHSQPLGGDWTLGANIGYFDGEDDGEALEGHLDNKALSGLFSLRTGAHTFYLGLQRISGDSKWLRVNGTSGGTLANDSYNSSYDNARERSWQLRYDYNFAALGMPGLTFMTRYISGKNIHVGAVDDGEEWGRESEVAYVVQSGAAKNLTLRWRNTTMRRDYGSDNQFNEQRLIVQYPLSLFEGHHHHHH	soluble
SNGSSVASTSPSVKCKEDQGLNGHEEKENPFAEYMWMENEEDFNRQVEEELQEQDFLDRCFQEMLDEEDQDWFIPARDLPQAVGHLQQQLNGLSVGDSHESEDILSKSNLNPDAKEFVPGVKY	soluble
MEQTTIDGISLSLAGPVELTLRWVGQDELLKQLLAAWMVIDEKDIPFNPRLIGKPGVGKTTLAYAAARRLDRPVYLFQATMDTRPEDLIITPVIGPDGKIQYAASALVSAMLKGGVLILDEGNRMSEKAWASLAPLLDDRRYVESIITGLRVPAHRDFRIVVTMNEDSSTFEVPEYIHSRLQPQIFIDFPEADEELLILKENLPFAPSRILAYVVDFLQRAHAADELYSVRDGINIARYALKMMAATERDSVELLPLAVERVLGDEALRYLKLEHHHHHH	not soluble
MAHHHHHHMLRHLFRCTAAWAPKRSATREQRLKERVAARMELEAQVKSRVACYPHRSLTRPALRLERHQVNTPLFHSQLLNLNKMATDLQCISFSAPKGHWDAAIVLIKGHPNEANFEVWVNPTVPGYDDRHSIAPMYGMWENCISCGACTAWVIRPQSITCSGLDEYGNEKTEVLDGMRARCLMHELDHLSGRTILDQAQGPEFIVSGIAMGQRDLWPPNFPSAEAYMTSPHQFFDYVKNGPIIPPG	not soluble
MRVLTKKTEEEIRRDFFGPVQEAACKPYLLDVDPRKSWCELSELRLSTLICEFKPIGINKHFHLIGIIERMGKVFDNENAQVEIFLSEENRVAFRNQQRDLLMGGRPERTSYPPKYLCRPSLEMIEDKLKKWFGLRFCEENESYPSEFNSVTDYELPEYIMAEVRELSDKRAERERNTDNGIVESEKKSTIPRRLTEEDENYDIQT	not soluble
MGSDKIHHHHHHVLTNQTGYEYHKCTDLTAMIKDYIDNWQKNNAHFDGIYSGFMTGSKQIELFMDFLDVFYEKNTMLLVDPVMGDDGRTYGIYSAALLDGMKALSRKADVITPNLTEACLLADYDIEKVYSDTRKDVLLPIAAEISEKLRCLSGKNQDVIITGIKCRDDKSPFIYNLVTTANGTTTHRSHFFDVSFSGTGDLFASVICGSRLNGFSTEEAAERAGKFLYDSIADTMNDDTAPNDGVNFEKFLRELM	not soluble
MSLHRLQKVVRHIAQTEIMPRFLNTPSRRKEDGSMLSEADIAAQTAFAAALPLLIDCPMLGEEMSRQEQSALWEQYSGEKGLWIVDPIDGTNNFVNGLPHFAVSVAFVRNGRAELGVIYNPVSGECFYAERGQGAFLNGTRLPLRLVDKKLNEAIAGVEIKYLRSGKLSSRMSTLAPFGTIRSMGSSTLDWCYLACGRYDVYVHGGQKLWDYAAGALIFEEAGGRLTTLEGDGFWSGEHVFKRSVVAALEPKLFERWVGWIRENQEGHHHHHH	soluble
MYHDRRRTGFRQYETYMKQKQSADWQLDELLEELEALETQLNSSNGGDQLLLGVSGIPASSSRENVKSISTLPPPPPALSYHQTPQQPQLLHHHNNHLGYQNGIHQITSINSAASSCSSPDGDSAFGDSSSTESSNNRCRNSAFSSNDSCRDSLNTPSPTQVSPRNGELNAEEAKAQKIRQALEKMKEAKVTKIFVKFFVEDGEALQLLIDERWTVADTLKQLAEKNHIALMEDHCIVEEYPELYIKRVYEDHEKVVENIQMWVQDSPNKLYFMRRPDKYAFISRPELYLLTPKTSDHMEIPSGDQWTIDVKQKFVSEYFHREPVVPPEMEGFLYLKSDGRKSWKKHYFVLRPSGLYYAPKSKKPTTKDLTCLMNLHSNQVYTGIGWEKKYKSPTPWCISIKLTALQMKRSQFIKYICAEDEMTFKKWLVALRIAKNGAELLENYERACQIRRETLGPASSMSAASSSTAISEVPHSLSHHQRTPSVASSIQLSSHMMNNPTHPLSVNVRNQSPASFSVNSCQQSHPSRTSAKLEIQYDEQPTGTIKRAPLDVLRRVSRASTSSPTIPQEESDSDEEFPAPPPVASVMRMPPPVTPPKPCTPLTSKKAPPPPPKRSDTTKLQSASPMAPAKNDLEAALARRREKMATMECMGHHHHHHENLYFMGHHHHHHENLYFQSH	soluble
MQERILFGTYTKKTSQGIYQGTLDTTAKTLTNDGLLAATQNPTYLALSAKDCLYSVDKEDDEGGIAAWQIDGQTAHKLNTVVAPGTPPAYVAVDEARQLVYSANYHKGTAEVMKIAADGALTLTDTVQHSGHGPRPEQDGSHIHYTDLTPDNRLAVIDLGSDKVYVYNVSDAGQLSEQSVLTMEAGFGPRHLVFSPDGQYAFLAGELSSQIASLKYDAQTGAFTQLGIVKTIPADYTAHNGAAAIRLSHDGHFLYVSNRGYNTLAVFAVTADGHLTLIQQISTEGDFPRDFDLDPTEAFVVVVNQNTDNATLYARDLTSGKLSLLQKDVTVPEGVCVRFLEHHHHHH	soluble
LKEILDEMFRDEVQKLKYFLEDVKEEDEELYNKIVDALKLFKENYEIEDIKIPKKIRVFLVKNNILFLNPQKGSLKPQSYLVWNAIKMLL	not soluble
MGSDKIHHHHHHALKKIYPHATNVSWSQQGNYYVASFTQNGFEKEVWMNGNAQWVMTNTDLQTTDQLTPNVYNDFTLSPYAMWTATNVNLIEFPKRTTLYVITVNLNNSSATKQLFYTLNGRLLQTRDVSYINPTLSPGIFEF	not soluble
